Assay results as given in US20250188179A1 (ADAGENE PTE, published 2025).

T1: His-tagged recombinant human FcγRIIa (human, UniProt P12318 36-218, limits assumed)
T1 construct: His-tagged; also called hFcγRIIa
T1 sequence (looked up): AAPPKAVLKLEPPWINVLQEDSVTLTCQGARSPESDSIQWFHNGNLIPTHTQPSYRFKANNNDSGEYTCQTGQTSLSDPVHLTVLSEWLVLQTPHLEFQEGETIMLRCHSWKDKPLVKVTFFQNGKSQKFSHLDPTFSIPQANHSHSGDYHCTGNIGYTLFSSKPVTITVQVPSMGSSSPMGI

T2: His-tagged recombinant human FcγRIIb (human, UniProt P31994 46-217, limits assumed)
T2 construct: His-tagged; also called hFcγRIIb
T2 sequence (looked up): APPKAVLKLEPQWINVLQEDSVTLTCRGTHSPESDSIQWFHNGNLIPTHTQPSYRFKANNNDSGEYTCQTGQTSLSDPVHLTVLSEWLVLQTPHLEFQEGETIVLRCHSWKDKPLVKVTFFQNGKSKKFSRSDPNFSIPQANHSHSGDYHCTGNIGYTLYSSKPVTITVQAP

B1: TY25366 (antibody, human IgG4 S228P, kappa)
heavy: EVQLVESGGGLVQPGGSLRLSCAASGFSLSTGGVGVGWIRQAPGKGLEWLALIDWADDKYYSPSLKSRLTISRDNSKNTLYLQLNSLRAEDTAVYYCARGGSDTVIGDWFAYWGQGTLVTVSSASTKGPSVFPLAPCSRSTSESTAALGCLVKDYFPEPVTVSWNSGALTSGVHTFPAVLQSSGLYSLSSVVTVPSSSLGTKTYTCNVDHKPSNTKVDKRVESKYGPPCPPCPAPEFLGGPSVFLFPPKPKDTLMISRTPEVTCVVVDVEQEDPEVQFNWYVDGVEVHNAKTKPREEQFNSTYRVVSVLTVLHQDWLNGKEYKCKVSNKGFPSSIEKTISKAKGQPREPQVYTLPPSQEEMTKNQVSLTCLVKGFYPSDIAVEWESNGQPENNYKTTPPVLDSDGSFFLYSRLTVDKSRWQEGNVFSCSVMHEALHNHYTQKSLSLSLGK
light: not shown
notes: also called untreated TY25366
B2: TY24122 (antibody, human IgG4 S228P, kappa)
heavy: B1 heavy
light: not shown

Tests used:
[1] = biological target: T3, hCD137 (antigen of the ELISA and FACS assays of Example 2) (human, UniProt Q07011 24-186, limits assumed); assay: ELISA on hCD137, absorbance at 450 nm; masked antibody without MMP9 treatment
T3 construct: also called human CD137

[2] = biological target: T4, full-length human CD137 with C-terminal 3xMyc tag displayed on yeast cells (human, UniProt Q07011 24-255); assay: FACS titration on yeast displaying full-length hCD137-3xMyc, no protease; data batch 4
T4 construct: whole, on cells; not used; also called hCD137; not shown: C-terminal 3xMyc tag

[3] = biological target: T4, full-length human CD137 with C-terminal …; assay: KD divided by KD of parental antibody (TY21242 or TY23310); FACS on yeast hCD137; data batch 4
[4] = biological target: T3, hCD137 (antigen of the ELISA and FACS …); assay: ELISA on hCD137
[5] = biological target: T3, hCD137 (antigen of the ELISA and FACS …); assay: FACS-based assay on hCD137
[6] = biological target: T3, hCD137 (antigen of the ELISA and FACS …); assay: FACS KD relative to parental antibody TY24122
[7] = biological target: T3, hCD137 (antigen of the ELISA and FACS …); assay: ELISA EC50 relative to parental antibody TY24122
[8] = biological target: T1, His-tagged recombinant human FcγRIIa; assay: BLI (Fortebio), His-tagged FcγR captured on anti-Penta-His sensor, antibody in solution, steady state analysis
[9] = biological target: T2, His-tagged recombinant human FcγRIIb; assay: as above

Row | Binder | EC50 (read off the curve) [1] [nM] | Kd [2] [nM] | Masking efficiency [3] [fold] | EC50 [4] [nM] | Kd [5] [nM] | Masking efficiency [6] [fold] | Masking efficiency [7] [fold] | Kd [8] [nM] | Kd [9] [nM]
1 | B1 | ~10 | 64.6 | 324 | – | – | – | – | – | –
2 | B2 | – | – | – | 0.31 | 0.141 | 1 | 1 | 5.85 | 5.06
